Here are results for 69 sequences from the domain aggregation screens of Martell et al. (2025).

A short description of the data set: soluble fraction after stress (log2 fold change); higher = more stays soluble; pooled small domains, quantitative proteomics. Particulars: stress: 50 degC. Summed up:
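Quantitative proteomics served as the high-throughput read-out for pooled custom libraries of small protein domains. Each was stressed at 50°C. Aggregation propensity is expressed as the base-two log fold change in soluble protein after stress. A higher value means a larger share of the protein remains in solution.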
Take “HMRIWTISDLYKNVEDKKVSLAVFSEDNDSNKVNVLDINGEEHSVNLLKADLPTLVDLFRKNDVRFAVRSN”: the “soluble fraction (log2)” value was 0.12.
Take “HMRIWTPEMIKEYIISSNGKEPLNSHYYSTNHPSIYAAAERIFGSWGNAINAAGLDYNAIRKYK”: the “soluble fraction (log2)” value was -0.00482.
The value for “HMRIYFSPSEIGFYHESDKQAYLLAGTWPNDLLEISEKWFLYLLEGQQKGKVITVNDYDQPVLVD” was -3.31; that for “HMRIYTKDEYLAELSRYLHKLPQDDYESAMAYFREYFEEAGPENEAQAMRDLGTPKEAASEILQNLLH” was -0.305.
“HMRKDYTVLYSAVNAEEATEIVSKLQESGVAYQYKDNGDVLVDKKQVDKVRAQLAQEGYPKS”: the “soluble fraction (log2)” value worked out at 0.164.
In the case of “HMRKIEDVLRLHAQGMSTRRIALATGVGKTTVIEYLRRAAVAGLSWPLPEGLDEEALERRVFPPPP”, the “soluble fraction (log2)” value is -1.45.
“HMRKIFPFNPNFITDQRGYFLGMSTSEIDRLHHFRAANKWIQSAQEFQVVTKVSNAWLSEFSPYFNFP”: the “soluble fraction (log2)” value was -3.39.
On to “HMRKKTYEIITDDLRRMIEAGLIRPGEKLGAIDQLAAKYRVGRSTVREALSHLKALGLVESRQGGGTYVTK”, for which the “soluble fraction (log2)” value stood at 0.156.
Regarding “HMRKNVAGITPNVYGMGLKDAVYLLENAGYRVKVNGRGNVVRQSINSGTRIIKGQLIILDLD”, the “soluble fraction (log2)” value is -2.73.
For the sequence “HMRKSNADALDGKTGIVKEEIKTGGYGYVGIDGDMWRSISESGEAIPAGTKVVVISHESIILTVKPA”, the “soluble fraction (log2)” value was -0.315.
The value for “HMRKTLASTAYDSIKAGIVSGEINNNLLLSENTLAKILNMSRTPIREAIKRLEAESYLKSVDGVGLIVQE” was -0.211; that for “HMRKTLSQEAYEKIKQNLEDGVYQGYINGRQVARDLDIGFTPVREAFLQLQSEGLIRKEDNVGYFV” was 0.139.
Take “HMRKTYHVDAYQDDKWWVLQVQEMPNAISQVKSLDQADEWIREAINIVSNEPEDSFDVVIIPV”: the “soluble fraction (log2)” value was -0.612.
Turning to “HMRKVTDTHELSSVVKSVIDQWEEKAAEYRAGKSGLLGFFVGEVMKKTGGAADPEAAKSLLQDRLD”, the “soluble fraction (log2)” value was found to be 0.18.
Turning to “HMRKYEAVPASVVPAQIQEYVAKSNFPNQYIRKIERNKYTWEIELSNGLEIKFDRQFNVIGFD”, the “soluble fraction (log2)” value is -1.49.
The value for “HMRLGQLQSVEEPKFIEVHSGKQGDIGEQTIVEYEIDAKYATGDATINLKLLFRDGLFEIYNFNFSSEALL” was 0.0828; that for “HMRLNIRTKNNYSYYTIIKDYTNLNGKRTTTIFEKLGNQQQVEERFGKVNTIENIKKYIEELNNE” was -1.23.
As for “HMRLPAISYSFARKHGVVLRLDGDRPVASLREGADPAILIEVKRHLDGAMGVEKVSEAAFDQLLSTTYA”, the “soluble fraction (log2)” value is -0.484.
Take “HMRLPNGYGSITKLSGKRRKPFMVRITTGYDNEGKQLMSVLGYYATRTEALAVLAEYNKNPYNPI”: the “soluble fraction (log2)” value was -2.57.
For “HMRLPNHYGSVVKLSGKRRRPFMVRGGVYGYDDRGYPQYVIVGYTETREQGLTMLAEYNRNP”, the “soluble fraction (log2)” value is -3.22.
The value for “HMRLPVELTDREVEVLRLLAQAMSNGEIARELYIGEATVKTHVSNVLQKLGARDRVAAVVWAHRYGL” was -1.59; that for “HMRLSAADLQSYLKGMDYPASRQDLIAHARGHNAPEEAVATLEQFSDRTYRSAADVSVEFGRE” was 0.25.
Consider “HMRLSPTMVETLIAMLNRNAYPAYENNSRTFASLEERGLIQPDIEGNWSLTDTGHQTALKLLK”, for which the “soluble fraction (log2)” value turned out to be 0.0915.
On to “HMRLSVRQRMSDVLGALKTQAFVEFTQLFRPQEGRMGVTVTFSAILELLREGLIEIVQSEPFAPIHVRAGA”, for which the “soluble fraction (log2)” value is -0.0036.
With “HMRMDKHLWLSLLRLINEGSAEELQTKKDELLQSLERLRITRGPVRGDVLRVVRLIDEELVSRLHLDQR”, the “soluble fraction (log2)” value is -2.29.
For the sequence “HMRMTKPLPFDLAAFRNEFGFTKSIIMQEVGVSRHIYDNVERTNATPPEFYDDFVSFFQRHGQ”, the “soluble fraction (log2)” value was -1.04.
For the sequence “HMRMTPRQALDDLIREREETYAAVSRLLGRNTAYIQQYIKRGTPARLDQSDIAQLALHFDVPAKLLGGKE”, the “soluble fraction (log2)” value was -0.943.
As for “HMRMTTEQLMSFLKQHFPQVADNFTVRISDEGRLSVEMPVNDKHLRPGGTVSGPSMFALADVAFYLAILQ”, the “soluble fraction (log2)” value is -1.16.
In the case of “HMRNERDRQLYAAMEKLKAEYREALYLVYFENMSYRDAAAVMAQTEKQISNLVYRGKQSLKTILEQEGF”, the “soluble fraction (log2)” value was -2.65.
Regarding “HMRNGGHTVYRNNGSLFIVVRDGDKLESVASEFRVSPKKLIKYNDLDIHSNVKTGDMIYIRPKA”, the “soluble fraction (log2)” value is -0.236.
The value for “HMRNLYEILGVSKDAPQGEIKSAYRKLAKTYHPDLNPNNEKAAELFKEINQAYEVLSDETKRRHYDQFGEA” was 0.312; that for “HMRNMTDYLTIVRAVYGGLSQRQAATTYHVSRNTVSLLIRHAKNQGWLTVEDLSRADAAAFSPA” was -0.517.
The value for “HMRNMVSVLDHIEGIGPKRRQLLYEHYGELEKIKEASVEEMAGLDGMNRPAAEAVYNFFLAQRNL” was 0.0507; that for “HMRNSSLQTDLELRAYVIDGLNHFWTPEEIAGRWSLAHPDRPVSFATIYRHIKRKLLPGIEPKTHLRRRGK” was -2.55.
On to “HMRPEARAASLSDEERKIFDYLAANGEKTIDNISVAVKMSAADILKNITLMSAKGLVYMPSAGRYGVKGN”, for which the “soluble fraction (log2)” value is -0.00201.
For the sequence “HMRPNREKDMADLEKLAPFLLQMLTNYAQMTGDEKPLNAFITRFGYAAQIRDIQDFFMGPWHPA”, the “soluble fraction (log2)” value was not below 0.62.
As to “HMRPQIAIDAIQALSLIMRTENKEDPTYLESRRVVSDAVAKRLSLNPTDLNRAWSRAPRDHQIAVLSALTQ”, the “soluble fraction (log2)” value was -0.853.
“HMRPRGTRLPTGWTPSSDALDWTKAEKPGLDPLQTLEKFRDYWTAQPGQKGVKTDWDATWRNWVRREIP”: the “soluble fraction (log2)” value was 0.172.
For the sequence “HMRPSGTAGILRYLSSGAIRGIGATTAQRLVSEFGEKTLDVMENEPERVAMLKGISKSKAEDFSLQLKQS”, the “soluble fraction (log2)” value stood at 0.0105.
The value for “HMRPTAWEQVSRHIDQHGSIGNTEVRKAMETENVLAASKQIKKWLEQGLLIILNPTAGTRARRYSKPNM” was -0.287.
“HMRPTDVLNYDESMRILNFSNNRVGFKHLMDAKGIEQVIFKNRKIGYRKSEILALKSELEAEQK”: the “soluble fraction (log2)” value was -0.341.
For the sequence “HMRPYAYGTGRRKSSTARVHLIPNGSGSITINGRTLDEYFGLETLKLIVRQPLAATETAEKFDVEATVV”, the “soluble fraction (log2)” value is -0.415.
For “HMRQDEKTLLYWIGAQVKREGKLIKTSTAQYLVEKTGTDMENLEKELEKLFAYTLDEKEITPAAIDEI”, the “soluble fraction (log2)” value is -1.8.
As to “HMRQIRELFRLKFGSLLPTSDRQIAAQLGVARSTVAEYLERARAAGLSWPLPLDLSDADLEERLFA”, the “soluble fraction (log2)” value is -2.75.
The value for “HMRQMSEELQSAKEALEDRRTQEKAVLLLMEHRNISNDEAHRLLRKLAMDQGKRLPEVARALVSMAGVL” was 0.132; that for “HMRQSKMREAILAAVSAQKLEISDLHVWRIGEQRYAAIIGLATTQAESVSALRDSLAQMDKLVHLTIDQ” was -1.89.
Take “HMRQTGWVTADSLNVRARPSLQAERVEKVTYGQQVQIMFKQGQWYQIATENGKIGWVSSEYIAAVSP”: the “soluble fraction (log2)” value was -0.0654.
For the sequence “HMRRELDSEHKRQEILFAAKRLLLAEGYDATSMSRLAKEAGVAPNTLYWYFKDKDELLIAILDELVAE”, the “soluble fraction (log2)” value is -1.72.
“HMRRGKLGMASRLEQIPGIGPKKRKALLKAFGNSIDAIKSAPVEDLMKVKGINLVLAESIKEL”: the “soluble fraction (log2)” value was 0.0167.
The value for “HMRRMTEEQSKLFQGLVSIVQTTLVADMEKGAVTPLLIAEKVDFVADNLYPGKDIDRKEAVAELIRRFSLW” was -0.339; that for “HMRRSKQERQQAIKTLISNEQIQRQEDLVRKLNEAGWEVTQATISRDITEMQLVKVPLPTGGFAYAVM” was 0.126.
For “HMRRSKVMLESILDEIPQMGQARRAALLEQFGSVAALRKASLAEIAMTPGIGEKIAVIIFEYLQKSSH”, the “soluble fraction (log2)” value was -1.17.
For “HMRRTEKEIEQDVMRAIATIISEKGISSVTIKEVSNLSKTDVIVLERRFKNDEGLIKAYTSQ”, the “soluble fraction (log2)” value was -0.166.
For “HMRSFADEGTVEEWIKQAIRENEAAVADYRKGKETAVKFLMGQVMRLSKGEANPADLEDKIKAKLD”, the “soluble fraction (log2)” value stood at 0.0903.
Regarding “HMRSFGTVAQARGRWKAFYVGPDKRRHTPGVTFSNPIRAQGWLAQELTLIELGQWTPPAQRREKAEVAS”, the “soluble fraction (log2)” value is -2.4.
For the sequence “HMRSIVETLTDRELEIFQLIGNGFSTGEIARRLNLSPHTIETHRKNIKDKLGLSSGSELNKQAIQWVLSS”, the “soluble fraction (log2)” value amounted to 0.153.
Take “HMRSKTSYAVWTPIQIDAGSQMQALQSKGFNTVLMEGGISVGIRSDKAQAQALLNRLQGAGFTGQLREVN”: the “soluble fraction (log2)” value was -0.183.
As for “HMRSLATFEEEKIALRFWNYLQSEGIKSTLEEEGPRDWVIWVIDEEKIPSATQSLEKFNLNPDDPAFSN”, the “soluble fraction (log2)” value is -0.438.
As for “HMRSLVDRSVQAVTDHIRENALRVGDSLPGEAYFATSLGVSRAVMREAFGALAALRVIDVGNGRKPRVGAI”, the “soluble fraction (log2)” value is -0.58.
The value for “HMRSMEKRLTAKVKRVQEGVQAKSQAGEQPFEVVKLMQRFPKLMQFGKHAEAETVLDKALELLGEE” was 0.172; that for “HMRSQLALVVRTGESQRLDNFLVNNLAWKSRNRLQGLIREGLVTVNGEKTKASRRVHLDDLVEIHL” was -1.25.
On to “HMRSTIYEFTVPPGQLESIRLDVYITSFVENATRSKVQEAIKQGYVWVNGKHEKASYTMLPGDKIYIELPI”, for which the “soluble fraction (log2)” value was -1.79.
Take “HMRSVEVAAEPGMVLEDRQTGFVGAVVAVEKSGGTHLVVLEDRHGLRRGFPLGPGFWLEGRPVVLAPPP”: the “soluble fraction (log2)” value is -0.227.
On to “HMRTANREKRIEASVKMMKAGYPVGYIIARVFMYEGWEEDYRQLLIYLSEKIPKDVSNPITFEVIS”, for which the “soluble fraction (log2)” value is -0.296.
In the case of “HMRTEGNLGAKVRVLRRSQGMTQAELARRLGISPSYLNLIEHNRRSFTADLLVKLAKILPVNLKT”, the “soluble fraction (log2)” value is -1.36.
Consider “HMRTITYSITPAHAGMSVERYLKQQHGYSTRTLVKLKHYPQGLQLNGQHARTVDLLQAGDTLAVTFLD”, for which the “soluble fraction (log2)” value was -0.552.
For the sequence “HMRTLSAGVAGRLRADILNGLLEPGRRLGMAELTERYGAGMSPVREALSRLVGEGLVQSEGQRGFRVA”, the “soluble fraction (log2)” value was -0.0944.
As to “HMRTMFGQRLRLARKRAGLSMQALADRVTPSVSAQAISKYEADQMMPSSSVLVGLGKALGVSLDFLVGGQ”, the “soluble fraction (log2)” value was -0.536.
As for “HMRTNVDISPKILEWVLSQVRNRTTNDVIETIQIWIKGEKPPTFNQVEKISKATGVPLGYFFLKTPPVED”, the “soluble fraction (log2)” value was -0.805.
